In patent publication US20070004634A1:
No end group written: not given here.

T1: soluble human insulin receptor-immunoglobulin heavy chain chimera (sIR-Fc; Bass et al., 1996) (human), P06213
T1 chain: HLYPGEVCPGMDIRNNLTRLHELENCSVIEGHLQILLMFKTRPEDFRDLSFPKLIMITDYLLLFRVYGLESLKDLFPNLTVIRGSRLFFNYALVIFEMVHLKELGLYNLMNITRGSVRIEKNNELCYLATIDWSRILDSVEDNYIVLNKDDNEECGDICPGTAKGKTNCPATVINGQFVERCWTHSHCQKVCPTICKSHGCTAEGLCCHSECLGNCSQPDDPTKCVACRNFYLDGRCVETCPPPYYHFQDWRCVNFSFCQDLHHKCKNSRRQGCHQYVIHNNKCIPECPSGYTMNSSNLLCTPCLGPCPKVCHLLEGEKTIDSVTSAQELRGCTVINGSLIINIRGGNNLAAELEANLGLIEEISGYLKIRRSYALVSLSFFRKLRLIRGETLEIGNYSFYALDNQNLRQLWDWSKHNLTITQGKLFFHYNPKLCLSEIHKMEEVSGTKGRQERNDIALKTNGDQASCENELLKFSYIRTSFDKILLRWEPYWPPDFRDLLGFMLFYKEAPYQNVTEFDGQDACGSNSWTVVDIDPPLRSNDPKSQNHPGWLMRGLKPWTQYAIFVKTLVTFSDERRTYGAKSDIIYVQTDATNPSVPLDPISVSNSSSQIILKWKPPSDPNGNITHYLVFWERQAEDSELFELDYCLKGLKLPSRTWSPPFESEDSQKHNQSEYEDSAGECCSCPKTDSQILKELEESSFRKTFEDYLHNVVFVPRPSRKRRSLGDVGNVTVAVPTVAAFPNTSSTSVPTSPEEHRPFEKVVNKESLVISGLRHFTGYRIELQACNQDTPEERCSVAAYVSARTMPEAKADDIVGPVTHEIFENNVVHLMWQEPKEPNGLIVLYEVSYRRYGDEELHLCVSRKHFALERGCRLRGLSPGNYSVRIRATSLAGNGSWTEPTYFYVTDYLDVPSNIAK

B1: 20E2B-2-B11-IGFR (peptide)
peptide: VVTPVNFYRALEALVRGXRLG
modifications: not fully specified; printed as VVTPVNFYRALEALVRG.RLG; X: residue not identified in the source
B2: 20E2B-3-C11-IGFR (peptide)
peptide: CMMXDGFYAGLGCLLTAGEGR
modifications: not fully specified; printed as CMM.DGFYAGLGCLLTAGEGR; X: residue not identified in the source; cysteine pairing not given here
B3: H2CA-2-B4-IGFR (peptide)
peptide: CCLLCRFQQNFYDWFVCQGISRLRPL
modifications: not checked
B4: lig-D815 (peptide)
chain: WLDQERAWLWCEISGRGCLS
modifications: not checked
B5: 20E2Bβ-4-G6-IR (peptide)
peptide: SQAGSAFYAWFDQVLRTVHSA
B6: B6Hα-2-C4-IR (peptide)
peptide: RCGRWXAEMGAGDDPFYHKLSELVCG
modifications: not fully specified; X: residue not identified in the source; cysteine pairing not given here
B7: G33-lig (peptide, from a related filing)
peptide: GIISQSCPESFYDWFAGQVSDPWWCW

Legend:
[1] = target: soluble IGF-1R (recombinant human IGF-1R extracellular domain, R&D Systems Cat. # 391-GR/CF) (human), P08069; assay: phage ELISA
[2] = target: T1, soluble human insulin …; assay: phage ELISA
[3] = target: His-tagged soluble recombinant human IGF-IR (srhIGF-1R-his) (human), P08069; assay: ALPHAScreen competition against b-hIGF-1 on srhIGF-1R-his
[4] = target: soluble human insulin receptor-immunoglobulin heavy chain chimera (sIR-Fc; Bass et al., 1996) (human) (UniProt P06213); assay: phage ELISA
[5] = target: IGF-1R on cells (MCF-7, MiaPaCa, FDC-P2 cells expressing human IGF-1R) (human) (UniProt P08069); assay: cell-based or functional assay

| Binder | IGF-1R/IR ratio comparison [1] | ratio over background [1] | IR/IGF-1R ratio comparison [2] | ratio over background [2] | IC50 [3] | IR/IGF-1R ratio comparison [4] | ratio over background [4] | Cellular EC50 (M), FDC-P2 cell proliferation [5] |
| --- | --- | --- | --- | --- | --- | --- | --- | --- |
| B1 | 9.4 | 10.6 | 0.1 | 1.1 | – | – | – | – |
| B2 | 7.5 | 15.4 | 0.1 | 2.1 | – | – | – | – |
| B3 | 3.6 | 4.1 | 0.3 | 1.1 | – | – | – | – |
| B4 | – | – | – | – | 2200 nM | – | – | – |
| B5 | – | – | – | – | – | 0.3 | 1.9 | – |
| B6 | 11 | 9.9 | 0.1 | 0.9 | – | – | – | – |
| B7 | – | – | – | – | 710 nM | – | – | 3e-06 M |
